Data on six molecules can be found in patent US20120219567A1 (Biogen, published 2012).

The chains are these.
B1: human NgR mutant 67, 68, 71 (mutated to alanine) (receptor)
chain: CPGACVCYNEPKVTTSCPQQGLQAVPVGIPAASQRIFLHGAAISAVPAASFRACRNLTILWLHSNVLARIDAAAFTGLALLEQLDLSDNAQLRSVDPATFHGLGRLHTLHLDRCGLQELGPGLFRGLAALQYLYLQDNALQALPDDTFRDLGNLTHLFLHGNRISSVPERAFRGLHSLDRLLLHQNRVAHVHPHAFRDLGRLMTLYLFANNLSALPTEALAPLRALQYLRLNDNPWVCDCRARPLWAWLQKFRGSSSEVPCSLPQRLAGRDLKRLAANDLQGCAVATGPYHPIWTGRATDEEPLGLPKCCQPDAADKASVLEPGRPASAGNALKGRVPPGDSPPGNGSGPRHINDSPFGTLPGSAEPPLTAVRPEGSEPPGFPTSGPRRRPGCSRKNRTRSHCRLGQAGSGGGGTGDSE
B2: human NgR mutant 82, 179 (mutated to alanine) (receptor)
chain: CPGACVCYNEPKVTTSCPQQGLQAVPVGIPAASQRIFLHGNRISHVPAASFRACRALTILWLHSNVLARIDAAAFTGLALLEQLDLSDNAQLRSVDPATFHGLGRLHTLHLDRCGLQELGPGLFRGLAALQYLYLQDNALQALPDDTFRDLGALTHLFLHGNRISSVPERAFRGLHSLDRLLLHQNRVAHVHPHAFRDLGRLMTLYLFANNLSALPTEALAPLRALQYLRLNDNPWVCDCRARPLWAWLQKFRGSSSEVPCSLPQRLAGRDLKRLAANDLQGCAVATGPYHPIWTGRATDEEPLGLPKCCQPDAADKASVLEPGRPASAGNALKGRVPPGDSPPGNGSGPRHINDSPFGTLPGSAEPPLTAVRPEGSEPPGFPTSGPRRRPGCSRKNRTRSHCRLGQAGSGGGGTGDSE
B3: human NgR mutant 87, 89, 133, 136 (mutated to alanine) (receptor)
chain: CPGACVCYNEPKVTTSCPQQGLQAVPVGIPAASQRIFLHGNRISHVPAASFRACRNLTILALASNVLARIDAAAFTGLALLEQLDLSDNAQLRSVDPATFHGLGRLATLALDRCGLQELGPGLFRGLAALQYLYLQDNALQALPDDTFRDLGNLTHLFLHGNRISSVPERAFRGLHSLDRLLLHQNRVAHVHPHAFRDLGRLMTLYLFANNLSALPTEALAPLRALQYLRLNDNPWVCDCRARPLWAWLQKFRGSSSEVPCSLPQRLAGRDLKRLAANDLQGCAVATGPYHPIWTGRATDEEPLGLPKCCQPDAADKASVLEPGRPASAGNALKGRVPPGDSPPGNGSGPRHINDSPFGTLPGSAEPPLTAVRPEGSEPPGFPTSGPRRRPGCSRKNRTRSHCRLGQAGSGGGGTGDSE
B4: human NgR mutant 67, 68, 71, 89, 90, 92 (mutated to alanine) (receptor)
chain: CPGACVCYNEPKVTTSCPQQGLQAVPVGIPAASQRIFLHGAAISAVPAASFRACRNLTILWLAANALARIDAAAFTGLALLEQLDLSDNAQLRSVDPATFHGLGRLHTLHLDRCGLQELGPGLFRGLAALQYLYLQDNALQALPDDTFRDLGNLTHLFLHGNRISSVPERAFRGLHSLDRLLLHQNRVAHVHPHAFRDLGRLMTLYLFANNLSALPTEALAPLRALQYLRLNDNPWVCDCRARPLWAWLQKFRGSSSEVPCSLPQRLAGRDLKRLAANDLQGCAVATGPYHPIWTGRATDEEPLGLPKCCQPDAADKASVLEPGRPASAGNALKGRVPPGDSPPGNGSGPRHINDSPFGTLPGSAEPPLTAVRPEGSEPPGFPTSGPRRRPGCSRKNRTRSHCRLGQAGSGGGGTGDSE
B5: human NgR mutant 133, 136 (mutated to alanine) (receptor)
chain: CPGACVCYNEPKVTTSCPQQGLQAVPVGIPAASQRIFLHGNRISHVPAASFRACRNLTILWLHSNVLARIDAAAFTGLALLEQLDLSDNAQLRSVDPATFHGLGRLATLALDRCGLQELGPGLFRGLAALQYLYLQDNALQALPDDTFRDLGNLTHLFLHGNRISSVPERAFRGLHSLDRLLLHQNRVAHVHPHAFRDLGRLMTLYLFANNLSALPTEALAPLRALQYLRLNDNPWVCDCRARPLWAWLQKFRGSSSEVPCSLPQRLAGRDLKRLAANDLQGCAVATGPYHPIWTGRATDEEPLGLPKCCQPDAADKASVLEPGRPASAGNALKGRVPPGDSPPGNGSGPRHINDSPFGTLPGSAEPPLTAVRPEGSEPPGFPTSGPRRRPGCSRKNRTRSHCRLGQAGSGGGGTGDSE
B6: AP-Nogo-66 (ligand, UniProt Q9NQC3 1055-1120, looked up)
chain: RIYKGVIQAIQKSDEGHPFRAYLESEVAISEELVQKYSNSALGHVNCTIKELRRLFLVDDLVDSLK
notes: domain: Nogo-66; also called AP-Ng-66; Nogo-66 ligand; not shown: alkaline phosphatase (AP) moiety

For the first test, the target named is B6. Briefly: AP-ligand binding to transfected COS-7 cells. The procedure: (§1) In order to probe the NgR domains that interact with Aβ and Nogo-66, a strategy based on the crystal structure of NgR was employed. A number of human NgR surface-accessible residues were mutated to Ala either individually or as groups of adjacent residues (Table 3), and resultant ligand binding characteristics were assessed. The ligand concentrations were AP, 30 nM, AP-Nogo-66, 5 nM, AP-Aβ(1-28), 50 nM. NgR mutagenesis has been previously described. Hu et al., J Neurosci 25:5298-5304 (2005); Fournier et al., J Neurosci 23:1416-1423 (2003). The expression of each mutant NgR protein was verified by immunohistochemical detection at the surface of cells transfected with expression vector (FIG. 2a). Bound AP was stained and measured using NIH image software. Mutants of human NgR were detected on the surface of transfected COS-7 immunofluorescently. For each of the mutants with altered binding characteristics, expression of immunoreactive NgR protein with electrophoretic mobility similar to wild type was also confirmed by immunoblot (FIG. 2c). Whole COS-7 cell lysates expressing NgR mutants were subjected to SDS-PAGE and blotted with anti-NgR antibodies. The mobility of each mutant was indistinguishable from wild type NgR, except for the mutations in N-linked glycosylation sites (N82 and N179). The binding of both AP-Aβ(1-28) and AP-Nogo-66 ligands to cells expressing this collection of NgR mutant proteins was assessed at concentrations equal to the predetermined Kd's of the ligands (FIG. 2b, d).
For B1, the binding result is “no binding (tested: 5 nM)”.
Still for that read-out and setting: next, B2: “no binding (tested: 5 nM)”; B3: “no binding (tested: 5 nM)”; B4: “no binding (tested: 5 nM)”.
Same read-out and setting: next, B5: “no binding (tested: 5 nM)”.

The next test concerns the target T1, human NgR mutant 163 (mutated to alanine) (human, UniProt Q9BZR6 27-445).
T1 sequence: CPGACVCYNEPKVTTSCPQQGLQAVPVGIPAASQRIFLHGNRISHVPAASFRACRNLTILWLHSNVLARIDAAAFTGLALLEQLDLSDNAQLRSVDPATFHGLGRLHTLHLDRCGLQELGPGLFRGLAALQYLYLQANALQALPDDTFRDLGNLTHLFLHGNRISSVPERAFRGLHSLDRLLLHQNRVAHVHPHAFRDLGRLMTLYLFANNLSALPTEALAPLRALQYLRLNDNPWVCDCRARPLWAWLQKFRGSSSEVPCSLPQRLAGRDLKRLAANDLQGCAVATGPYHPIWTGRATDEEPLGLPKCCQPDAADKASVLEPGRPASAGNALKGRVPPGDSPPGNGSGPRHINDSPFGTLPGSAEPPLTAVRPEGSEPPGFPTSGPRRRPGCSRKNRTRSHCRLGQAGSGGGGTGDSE
Kind of test: AP-ligand binding to transfected COS-7 cells. The procedure: as §1
With B6, the binding result is “no binding (tested: 5 nM)”.
